From patent US20090136503A1 (BEIJING COTIMES BIOTECH, published 2009)
Where two headings read alike, the source gives them in different places.

Legend:
[1] = molecular target: TRAIL-R1 on the surface of human tumor cells (human, UniProt O00220 24-468); experiment: cell-based or functional assay
[2] = molecular target: T1, TRAIL-R3-Fc fusion protein (human, UniProt O14798 26-221, limits assumed); experiment: ELISA: plate coated with TRAIL-R3-Fc at 1 µg/ml, HRP goat anti-human kappa, TMB
T1 construct: The origin of the protein is not described; also called TRAIL-R3-Fc fusion antigen; not shown: human IgG1 Fc
T1 sequence (looked up): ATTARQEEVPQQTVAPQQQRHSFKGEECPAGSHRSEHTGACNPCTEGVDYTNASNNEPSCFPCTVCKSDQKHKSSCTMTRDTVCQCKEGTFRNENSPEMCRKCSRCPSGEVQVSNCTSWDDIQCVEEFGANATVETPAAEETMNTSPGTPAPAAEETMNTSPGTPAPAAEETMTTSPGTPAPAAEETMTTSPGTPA

[3] = molecular target: T2, TRAIL-R4-Fc fusion protein (human, UniProt Q9UBN6 56-211); experiment: ELISA: plate coated with TRAIL-R4-Fc at 1 µg/ml, HRP goat anti-human kappa, TMB
T2 construct: The origin of the protein is not described; also called TRAIL-R4-Fc fusion antigen; not shown: human IgG1 Fc
T2 sequence (looked up): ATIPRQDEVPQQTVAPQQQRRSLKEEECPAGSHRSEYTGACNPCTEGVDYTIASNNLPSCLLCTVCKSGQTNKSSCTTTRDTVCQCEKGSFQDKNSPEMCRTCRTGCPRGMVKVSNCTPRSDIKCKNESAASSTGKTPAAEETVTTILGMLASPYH

[4] = molecular target: T3, BSA (bovine serum albumin), negative control (bovine, UniProt P02769 25-607); experiment: ELISA: plate coated with BSA (control) at 1 µg/ml, HRP goat anti-human kappa, TMB
[5] = molecular target: T4, TRAIL-R2 on the surface of human tumor cells (human, UniProt O14763 56-440); experiment: cell-based or functional assay
[6] = molecular target: T4, TRAIL-R2 on the surface of human tumor …; experiment: cell-based or functional assay; remark: listed apart in the source
[7] = molecular target: Human IgG1 (control antigen) (human); experiment: ELISA; human IgG1 captured on goat anti-human IgG, antibody at 2 µg/ml
[8] = molecular target: T1, TRAIL-R3-Fc fusion protein; experiment: ELISA: plate coated with TRAIL-R3-Fc at 1 µg/ml, HRP goat anti-mouse IgG, TMB
[9] = molecular target: T2, TRAIL-R4-Fc fusion protein; experiment: ELISA: plate coated with TRAIL-R4-Fc at 1 µg/ml, HRP goat anti-mouse IgG, TMB
[10] = molecular target: T5, TRAIL-R1-Fc fusion protein (human, UniProt O00220 24-239); experiment: ELISA: plate coated with TRAIL-R1-Fc at 1 µg/ml, HRP goat anti-human kappa, TMB
T5 construct: extracellular domain; also called TRAIL-R1-Fc fusion antigen; not shown: Fc portion of human IgG1

[11] = molecular target: T1, TRAIL-R3-Fc fusion protein; experiment: ELISA: plate coated with TRAIL-R3-Fc at 1 µg/ml, HRP goat anti-human kappa, TMB; remark: listed apart in the source
[12] = molecular target: T2, TRAIL-R4-Fc fusion protein; experiment: ELISA: plate coated with TRAIL-R4-Fc at 1 µg/ml, HRP goat anti-human kappa, TMB; remark: listed apart in the source
[13] = molecular target: T3, BSA (bovine serum albumin), negative …; experiment: ELISA: plate coated with BSA (control) at 1 µg/ml, HRP goat anti-human kappa, TMB; remark: listed apart in the source
[14] = molecular target: T6, Heterodimeric TRAIL-R1-Fc/TRAIL-R2-Fc fusion protein (human, UniProt O00220 24-239; O14763 56-210); experiment: ELISA: plate coated with TRAIL-R1/TRAIL-R2-Fc heterodimer at 1 µg/ml, HRP goat anti-human kappa, TMB
T6 construct: extracellular domain; also called TRAIL-R1/TRAIL-R2 dimer; TRAIL-R1/TRAIL-R2 heterodimer antigen; not shown: Fc portion of human IgG1

[15] = molecular target: TRAIL-R1 and/or TRAIL-R2 on human cancer cells; experiment: cell-based or functional assay
[16] = molecular target: T2, TRAIL-R4-Fc fusion protein; experiment: ELISA: plate coated with TRAIL-R4-Fc at 1 µg/ml, HRP goat anti-mouse IgG1, TMB
[17] = molecular target: T3, BSA (bovine serum albumin), negative …; experiment: ELISA: plate coated with BSA (control) at 1 µg/ml, HRP goat anti-mouse IgG1, TMB
[18] = molecular target: T5, TRAIL-R1-Fc fusion protein; experiment: ELISA: plate coated with TRAIL-R1-Fc at 1 µg/ml, CTB003 titrated, HRP anti-mouse IgG, TMB, OD 450/650
[19] = molecular target: T1, TRAIL-R3-Fc fusion protein; experiment: ELISA: plate coated with TRAIL-R3-Fc at 1 µg/ml, CTB003 titrated, HRP anti-mouse IgG, TMB, OD 450/650
[20] = molecular target: T6, Heterodimeric TRAIL-R1-Fc/TRAIL-R2-Fc …; experiment: ELISA: plate coated with TRAIL-R1/TRAIL-R2-Fc heterodimer at 1 µg/ml, CTB003 titrated, HRP anti-mouse IgG, TMB, OD 450/650
[21] = molecular target: T5, TRAIL-R1-Fc fusion protein; experiment: ELISA: plate coated with TRAIL-R1-Fc at 1 µg/ml, HRP goat anti-human kappa, TMB; remark: listed apart in the source
[22] = molecular target: T1, TRAIL-R3-Fc fusion protein; experiment: ELISA: plate coated with TRAIL-R3-Fc at 1 µg/ml, HRP goat anti-human kappa, TMB; remark: listed apart in the source
[23] = molecular target: T2, TRAIL-R4-Fc fusion protein; experiment: ELISA: plate coated with TRAIL-R4-Fc at 1 µg/ml, HRP goat anti-human kappa, TMB; remark: listed apart in the source
[24] = molecular target: T3, BSA (bovine serum albumin), negative …; experiment: ELISA: plate coated with BSA (control) at 1 µg/ml, HRP goat anti-human kappa, TMB; remark: listed apart in the source
[25] = molecular target: T6, Heterodimeric TRAIL-R1-Fc/TRAIL-R2-Fc …; experiment: ELISA: plate coated with TRAIL-R1/TRAIL-R2-Fc heterodimer at 1 µg/ml, HRP goat anti-human kappa, TMB; remark: listed apart in the source

T3 sequence (P02769 25-607 limits assumed): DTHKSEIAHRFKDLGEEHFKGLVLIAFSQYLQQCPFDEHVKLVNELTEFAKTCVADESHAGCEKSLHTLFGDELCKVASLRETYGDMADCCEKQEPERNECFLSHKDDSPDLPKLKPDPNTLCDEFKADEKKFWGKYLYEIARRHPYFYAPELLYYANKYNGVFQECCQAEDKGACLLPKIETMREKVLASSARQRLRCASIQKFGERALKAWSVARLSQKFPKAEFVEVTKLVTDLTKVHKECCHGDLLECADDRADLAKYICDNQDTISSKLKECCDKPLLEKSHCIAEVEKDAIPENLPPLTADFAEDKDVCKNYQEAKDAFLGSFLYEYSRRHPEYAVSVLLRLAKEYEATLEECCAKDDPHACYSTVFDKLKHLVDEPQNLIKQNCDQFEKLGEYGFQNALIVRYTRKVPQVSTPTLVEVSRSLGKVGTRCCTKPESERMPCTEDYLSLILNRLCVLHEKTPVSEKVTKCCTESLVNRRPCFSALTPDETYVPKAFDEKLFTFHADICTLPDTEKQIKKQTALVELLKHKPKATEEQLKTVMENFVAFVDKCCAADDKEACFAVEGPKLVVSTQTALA

B1: Human chimeric CTB007 (mouse-human chimeric antibody) (antibody, V domains shown)
VH: EVQLQQSGAELVKPGASVKLSCTASGFNIKDTYMHWVKQRPEQGLEWIGRIDPANGNTKYDPKFQGKATITADTSSNTAYLQLSSLTSEDTAVYYCAYYYVSNAWFTYWGQGTLVTVSA
VL: DIQMTQSPASLSVSVGETVTITCRASENIYSNLEWYQQKQGKSPQLLVYAATNLADGVPSRFSGSGSGTQYSLKINSLQSEDFGSYYCQHFWGTWTFGGGTKLEIKR
notes: Human IgG1 / kappa constant regions, made in CHO cells; also called hCTB007; HuCTB007
[1]
  IC50 (ng/ml), killing of Carov 3 cells, ATPLite cell viability: 31.6 ng/mL
  IC50 (ng/ml), killing of Colo205 cells, ATPLite cell viability: 5.9 ng/mL
  IC50 (ng/ml), killing of Du145 cells, ATPLite cell viability: 28.6 ng/mL
  IC50 (ng/ml), killing of H-2122 cells, ATPLite cell viability: 22.5 ng/mL
  IC50 (ng/ml), killing of MDA231 cells, ATPLite cell viability: 7.5 ng/mL
  IC50 (ng/ml), killing of MIAcap cells, ATPLite cell viability: 8.8 ng/mL
[2]
  binding result: no binding (tested: 1000 ng/ml)
[3]
  binding result: no binding (tested: 1000 ng/ml)
[4]
  binding result: no binding (tested: 1000 ng/ml)

B2: CTB006 murine monoclonal antibody against TRAIL-R2 (hybridoma CGMCC 1691) (antibody, V domains shown)
VH: QVQLQQPGPELVKPGASVRMSCKASGYTFTSYFIHWVKQRPGQGLEWIGWIYPGNVNTKYSEKFKGKATLTADKSSSTAYMQFSSLTSEDSAVYFCARGEAGYFDYWGQGTTLTVSS
VL: DIVMTQSHKFMSTSVGDRVSITCKASQDVSTAVAWYQQKPGQSPRLLIYWASTRHTGVPDRFTGSGSGTDYTLTISSVQAEDQALYYCQQHYRTPWTFGGGTKLEIK
notes: Murine monoclonal antibody; also called Anti-TRAIL-R2 (CTB006); CTB006-HRP
[5]
  IC50 (ng/ml), killing of Carov 3 cells, ATPLite cell viability: 17.4 ng/mL
  IC50 (ng/ml), killing of Colo205 cells, ATPLite cell viability: 5.8 ng/mL
  IC50 (ng/ml), killing of Du145 cells, ATPLite cell viability: 55.6 ng/mL
  IC50 (ng/ml), killing of H-2122 cells, ATPLite cell viability: 44.1 ng/mL
  IC50 (ng/ml), killing of MDA231 cells, ATPLite cell viability: 2.2 ng/mL
  IC50 (ng/ml), killing of MIAcap cells, ATPLite cell viability: 9.5 ng/mL
[6]
  IC50 (read off the curve); cell viability (%) of Jurkat cells, ATPLite, 16 h: ~0.01 µg/mL
[7]
  OD 450 nm/650 nm: 0.028 OD
[8]
  binding result: no binding (tested: 1000 ng/ml)
[9]
  binding result: no binding (tested: 1000 ng/ml)

B3: Human chimeric CTB006 (mouse-human chimeric antibody) (antibody, V domains shown)
VH: EVQLQQSGPELVKPGASVRMSCKASGYTFTSYFIHWVKQRPGQGLEWIGWIYPGNVNTKYSEKFKGKATLTADKSSSTAYMQFSSLTSEDSAVYFCARGEAGYFDYWGQGTTLTVSS
VL: DIVMTQSHKFMSTSVGDRVSITCKASQDVSTAVAWYQQKPGQSPRLLIYWASTRHTGVPDRFTGSGSGTDYTLTISSVQAEDQALYYCQQHYRTPWTFGGGTKLEIKR
notes: Human IgG1 / kappa constant regions, made in CHO cells; also called hCTB006; HuCTB006
[5]
  IC50 (ng/ml), killing of Carov 3 cells, ATPLite cell viability: 18.5 ng/mL
  IC50 (ng/ml), killing of Colo205 cells, ATPLite cell viability: 6.2 ng/mL
  IC50 (ng/ml), killing of Du145 cells, ATPLite cell viability: 52.3 ng/mL
  IC50 (ng/ml), killing of H-2122 cells, ATPLite cell viability: 42.1 ng/mL
  IC50 (ng/ml), killing of MDA231 cells, ATPLite cell viability: 1.5 ng/mL
  IC50 (ng/ml), killing of MIAcap cells, ATPLite cell viability: 10.1 ng/mL
[10]
  binding result: no binding (tested: 1000 ng/ml)
[11]
  binding result: no binding (tested: 1000 ng/ml)
[12]
  binding result: no binding (tested: 1000 ng/ml)
[13]
  binding result: no binding (tested: 1000 ng/ml)
[14]
  binding result: binds

B4: CTB003 murine monoclonal antibody (hybridoma CGMCC 1665) (antibody, mouse IgG1, V domains shown)
VH: EVHLVESGGGLVRPGGSLKLSCAASGFAFSSYDMSWVRQTPEKRLEWVAYISDGGGITYYPDTMKGRLTISRDNAKNTLSLQMSSLKSEDTAMYYCARHITMVVGPFAYWGQGTLVTVSA
VL: DIQMTQSSSSFSVSLGDRVTITCKAGEDIYNRLAWYQQKPGNAPRLLISGATNLETGVPSRFSGSGSGKDYTLSITSLQTEDVATYYCQQYWSTPLTFGAGTKLELK
notes: also called murine CTB003; parental murine CTB003
[15]
  IC50 (ng/ml), killing of Carov 3 cells, ATPLite cell viability: 24.6 ng/mL
  IC50 (ng/ml), killing of Colo205 cells, ATPLite cell viability: 7.1 ng/mL
  IC50 (ng/ml), killing of Du145 cells, ATPLite cell viability: 25.3 ng/mL
  IC50 (ng/ml), killing of H-2122 cells, ATPLite cell viability: 28.5 ng/mL
  IC50 (ng/ml), killing of MDA231 cells, ATPLite cell viability: 3.8 ng/mL
  IC50 (ng/ml), killing of MIAcap cells, ATPLite cell viability: 13.2 ng/mL
[6]
  IC50 (read off the curve); cell viability (%) of Jurkat cells, ATPLite, 16 h: ~0.02 µg/mL
[16]
  binding result: no binding (tested: 1000 ng/ml)
[17]
  binding result: no binding (tested: 1000 ng/ml)
[18]
  EC50 (read off the curve): ~0.02 µg/mL
[19]
  binding result: no binding (tested: 10^4 ng/ml)
[20]
  EC50 (read off the curve): ~0.02 µg/mL

B5: Human chimeric CTB003 (mouse-human chimeric antibody) (antibody, human IgG1, V domains shown)
VH: EVHLVESGGGLVRPGGSLKLSCAASGFAFSSYDMSWVRQTPEKRLEWVAYISDGGGITYYPDTMKGRFTISRDNAKNTLSLQMSSLKSEDTAMYYCARHITMVVGPFAYWGQGTLVTVSA
VL: DIQMTQSSSSFSVSLGDRVTITCKASEDIYNRLAWYQQKPGNAPRLLISGATSLETGVPSRFSGSGSGKDYTLSITSLQTEDVATYYCQQYWSTPLTFGAGTKLELKR
notes: Human IgG1 / kappa constant regions, made in CHO cells; also called hCTB003; HuCTB003
[21]
  binding result: binds
[22]
  binding result: no binding (tested: 1000 ng/ml)
[23]
  binding result: no binding (tested: 1000 ng/ml)
[24]
  binding result: no binding (tested: 1000 ng/ml)
[25]
  binding result: binds
